Measured values: publication PMC3019557 (The Journal of Cell Biology, 2011)

T1: CFP-PPARγ2 (peroxisome proliferator activated receptor γ2 fused to ECFP) (UniProt P37231-1 1-505)
T1 sequence (looked up): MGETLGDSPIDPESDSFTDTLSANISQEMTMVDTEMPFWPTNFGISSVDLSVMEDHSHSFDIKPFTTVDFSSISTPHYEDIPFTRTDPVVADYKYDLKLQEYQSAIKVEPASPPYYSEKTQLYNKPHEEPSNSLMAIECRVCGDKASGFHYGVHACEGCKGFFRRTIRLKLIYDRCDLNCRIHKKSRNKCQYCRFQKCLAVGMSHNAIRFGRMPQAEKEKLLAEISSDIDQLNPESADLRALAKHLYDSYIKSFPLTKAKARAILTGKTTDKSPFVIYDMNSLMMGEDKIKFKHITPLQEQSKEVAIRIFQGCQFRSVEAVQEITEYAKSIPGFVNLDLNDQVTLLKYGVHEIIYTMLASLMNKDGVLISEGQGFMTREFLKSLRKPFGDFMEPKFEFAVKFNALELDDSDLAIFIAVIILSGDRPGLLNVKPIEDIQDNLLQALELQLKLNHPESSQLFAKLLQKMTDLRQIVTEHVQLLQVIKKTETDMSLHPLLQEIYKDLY

B1: EYFP-SRC-2 (steroid receptor coactivator 2 fused to EYFP) (natural protein)
chain: not shown
B2: EYFP-SRC-3 (steroid receptor coactivator 3 fused to EYFP) (natural protein)
chain: not shown

Target: T1, CFP-PPARγ2 (peroxisome proliferator …)
Assay: FRET or BRET

Row | Binder | fold change in FRET, MIX against vehicle [fold]
1 | B1 | > 1.5
2 | B2 | > 1.5
